Literature values, collected in patent US20220370374A1, “TRANSDERMAL ABSORPTION-TYPE PATCH” (KYUSHU UNIVERSITY, NATIONAL UNIVERSITY CORPORATION, priority 2019, published 2022).
Where two headings read alike, the source gives them in different places.

| Compound | solubility (in ethanol, acetic acid, or N-methylpyrrolidone) | solubility (in water) | solubility (in ethanol) | solubility (in methanol) | solubility (in water or acetic acid) |
| --- | --- | --- | --- | --- | --- |
| C[C@@H](O)[C@@H]1NC(=O)[C@H](CCCCN)NC(=O)[C@@H](Cc2c[nH]c3ccccc23)NC(=O)[C@H](Cc2ccccc2)NC(=O)[C@@H](NC(=O)[C@H](N)Cc2ccccc2)CSSC[C@@H](C(=O)N[C@H](CO)[C@@H](C)O)NC1=O [Octreotide acetate] | freely soluble | Extremely soluble |  |  |  |
| Leuprorelin |  |  | slightly insoluble | soluble | freely soluble |
